Source: patent publication US20120020971A1

B1: MAB8 (antibody, V domains shown)
VH: EVQLVESGGGLVKPGGSLRLSCAASGFTFSTYTMSWVRQAPGQGLEWVSSITRTSSNIYYADSVEGRFTISRDNAKNSLYLQMHSLRVEDTAVYYCARISGVVGPVPFDYWGQGTLITVSS
VL: DIQMTQSPSSLSASVGDRVTITCRASQTISKYLNWYQQKPGRAPKLLIYSASSLQSGVPSRFTGSGSGTDFTLTITSLQPEDFATYYCQQSYRPSQITFGPGTKVDIKR
B2: MAB53 (antibody, V domains shown)
VH: QVQLVQSGAEVRKPGSSVKVSCKVSGGIIRKYAINWVRQAPGQGLEWMGGIIAIFNTANYAQKFQGRVTITADESTSTVYMELSSLRSEDTALYYCARGMNYYSDYFDYWGQGSLVTVSP
VL: EIVLTQSPGTLSLSPGERATLSCRASQSVRSNNLAWYQHKPGQAPRLLIFGASSRATGIPDRFSGSGSGTDFTLTISRLEPEDFAVYYCQQYGSSPALTFGGGTKVEIKR

Tests used:
Experiment in all cases: FortéBio biosensor (biolayer interferometry), HA0 protein
[1] = target: HA0 protein from the H3 clade (influenza A virus, H3 clade (strain not stated))
[2] = target: HA0 protein from the H5 clade (influenza A virus, H5 clade (strain not stated))
[3] = target: HA0 protein of the H1 clade (influenza A virus, H1 clade (strain not stated))
[4] = target: HA0 protein from the H9 clade (influenza A virus, H9 clade (strain not stated))
[5] = target: HA0 protein from the H7 clade (influenza A virus, H7 clade (strain not stated))

Row | Binder | Kd [1] | Kd [2] | Kd [3] | Kd [4] | Kd [5]
1 | B1 | 16 nM | 0.2 nM | 9 nM |  | 
2 | B2 |  | 6 nM | 0.06 nM | 0.03 nM | 0.07 nM
